Test results from US20140193401A1 (published 2014).
Read-outs that look alike come from different tables or passages of the source.

How the values were obtained:
[1] = molecular target: T1, PTx-S1-220 (truncated PTx-S1, residues 1-220, strain Tohama I, variant B) (Bordetella pertussis, UniProt P04977 35-254)
T1 sequence: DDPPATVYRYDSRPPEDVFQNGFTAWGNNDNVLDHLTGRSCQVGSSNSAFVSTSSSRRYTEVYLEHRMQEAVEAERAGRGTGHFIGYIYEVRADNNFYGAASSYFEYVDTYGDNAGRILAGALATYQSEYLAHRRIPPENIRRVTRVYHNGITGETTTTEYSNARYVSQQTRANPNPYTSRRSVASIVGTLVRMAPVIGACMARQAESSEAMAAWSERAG

[2] = molecular target: T2, pertussis toxin holotoxin (Bordetella pertussis, UniProt P04977 35-269; P04978 31-226; P04979 32-227; P0A3R5 43-152; P04981 36-133); experiment: cell-based or functional assay
[3] = molecular target: pertussis toxin subunit S2 (Bordetella pertussis, UniProt P04978 28-226); experiment: Western blot of B-oligomer and PTx
[4] = molecular target: pertussis toxin subunit S3 (Bordetella pertussis, UniProt P04979 29-227); experiment: Western blot of B-oligomer and PTx
[5] = molecular target: pertussis toxin subunit S4 (Bordetella pertussis, UniProt P0A3R5 43-152); experiment: Western blot of B-oligomer and PTx
[6] = molecular target: pertussis toxin subunit S5 (Bordetella pertussis, UniProt P04981 35-133); experiment: Western blot of B-oligomer and PTx
[7] = molecular target: T3, pertussis toxin B-oligomer (Bordetella pertussis, UniProt P04978 31-226; P04979 32-227; P0A3R5 43-152; P04981 36-133); experiment: ELISA repeated with mAb 1B7; EC50 as percent of the PTx reference
PTx-S1-220 Y8A = molecular target: T4, PTx-S1-220 Y8A (Bordetella pertussis, UniProt P04977 35-254); experiment: Western blot with mAb 1B7; paragraph 150 says 1B7 was unable to bind Y8A
T4 chain: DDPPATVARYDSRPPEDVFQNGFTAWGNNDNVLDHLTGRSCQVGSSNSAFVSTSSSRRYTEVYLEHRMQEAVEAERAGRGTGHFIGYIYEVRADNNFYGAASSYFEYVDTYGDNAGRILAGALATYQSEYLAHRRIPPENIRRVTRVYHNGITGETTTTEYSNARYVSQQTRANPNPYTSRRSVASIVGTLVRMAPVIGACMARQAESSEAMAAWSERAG

[8] = molecular target: T2, pertussis toxin holotoxin; experiment: SPR (BIAcore 3000), mAb 1B7 immobilised on CM5 chip, toxin injected
[9] = molecular target: T3, pertussis toxin B-oligomer; experiment: as above
[10] = molecular target: full length PTx-S1 (1-235) protomer (Bordetella pertussis, UniProt P04977 35-269); experiment: as above
[11] = molecular target: T1, PTx-S1-220 (truncated PTx-S1, residues …); experiment: as above
[12] = molecular target: T5, PTx-S1A (residues 1-220, M194I) (Bordetella pertussis, UniProt P04977 35-254); experiment: as above
T5 chain: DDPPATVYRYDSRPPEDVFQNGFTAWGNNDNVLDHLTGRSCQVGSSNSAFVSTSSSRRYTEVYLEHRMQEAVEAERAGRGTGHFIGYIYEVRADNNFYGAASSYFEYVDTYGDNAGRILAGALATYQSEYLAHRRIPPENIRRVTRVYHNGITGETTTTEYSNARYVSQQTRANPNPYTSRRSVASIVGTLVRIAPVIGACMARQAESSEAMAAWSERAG

[13] = molecular target: T6, PTx-S1D (residues 1-220, D34E, I198V) (Bordetella pertussis, UniProt P04977 35-254); experiment: as above
T6 chain: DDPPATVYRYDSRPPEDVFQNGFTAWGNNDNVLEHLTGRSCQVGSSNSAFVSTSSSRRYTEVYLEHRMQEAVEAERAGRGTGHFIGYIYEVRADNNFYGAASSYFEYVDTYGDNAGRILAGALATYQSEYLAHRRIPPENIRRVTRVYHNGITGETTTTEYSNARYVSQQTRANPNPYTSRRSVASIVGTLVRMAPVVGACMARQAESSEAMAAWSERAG

[14] = molecular target: T7, PTx-S1 9K/129G (residues 1-220, R9K, E129G) (Bordetella pertussis, UniProt P04977 35-254); experiment: as above
T7 chain: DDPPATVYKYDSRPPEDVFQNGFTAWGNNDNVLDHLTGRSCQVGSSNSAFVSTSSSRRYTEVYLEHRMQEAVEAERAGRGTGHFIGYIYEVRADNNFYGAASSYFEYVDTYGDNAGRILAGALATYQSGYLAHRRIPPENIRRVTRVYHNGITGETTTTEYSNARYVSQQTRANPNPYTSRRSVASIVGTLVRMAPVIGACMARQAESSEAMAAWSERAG

B1: murine monoclonal antibody 1B7 (antibody, V domains shown)
VH: EVQLQQSGSELVRPGASVKLSCKASGYKFTSYWMHWVKQRPGQGLEWIGNIFPGSGSTNYDEKFNSKATLTVDTSSNTAYMQLSSLTSEDSAVYYCTRWLSGAYFDYWGQGTTLTVSS
VL: DIQMTQSPALMSASPGEKVTMTCSASSSVSFMYWYQQKPRSSPKPWIYLTSNLPSGVPARFSGSGSGTSYSLTISSMEAEDAATYYCQQWSSHPPTFGSGTKLEIKR
notes: also called mAb 1B7; 1B7 mAb
Question: With B1 as the binder, how does the koff [1] read?
Answer: Its koff is 0.0019 s⁻¹.

Question: And the “In Vitro Neutralization (nM), minimum protective concentration, CHO clustering assay” value [2]?
Answer: The value was 5.2 nM.

Question: Does B1 bind [3]?
Answer: Result: no binding

Question: Does B1 bind [4]?
Answer: Result: no binding

Question: Does B1 bind [5]?
Answer: Result: no binding

Question: Does B1 bind [6]?
Answer: Result: no binding

Question: And the “% EC50 PTx” value [7]?
Answer: Its value is 30%.

Question: Does B1 bind (PTx-S1-220 Y8A)?
Answer: Result: no binding

Question: What about the koff [8] of the same binder?
Answer: Its koff is 0.0004 s⁻¹.

Question: And the koff [9]?
Answer: Its koff is 0.0027 s⁻¹.

Question: What about the koff [10] of the same binder?
Answer: Its koff is 0.0019 s⁻¹.

Question: What about the koff [11] of the same binder?
Answer: The koff was 0.0014 s⁻¹.

Question: And the koff [12]?
Answer: Its koff is 0.00071 s⁻¹.

Question: And the koff [13]?
Answer: Its koff is 0.00095 s⁻¹.

Question: What about the koff [14] of the same binder?
Answer: The koff was 0.0016 s⁻¹.
